These results are taken from PMC11790920 (Nature Communications, 2025).

For the experiment, the target named is T1, eukaryotic translation elongation factor 1A (eEF1A), native, full length (S. cerevisiae, UniProt P02994 1-458).
T1 sequence (looked up): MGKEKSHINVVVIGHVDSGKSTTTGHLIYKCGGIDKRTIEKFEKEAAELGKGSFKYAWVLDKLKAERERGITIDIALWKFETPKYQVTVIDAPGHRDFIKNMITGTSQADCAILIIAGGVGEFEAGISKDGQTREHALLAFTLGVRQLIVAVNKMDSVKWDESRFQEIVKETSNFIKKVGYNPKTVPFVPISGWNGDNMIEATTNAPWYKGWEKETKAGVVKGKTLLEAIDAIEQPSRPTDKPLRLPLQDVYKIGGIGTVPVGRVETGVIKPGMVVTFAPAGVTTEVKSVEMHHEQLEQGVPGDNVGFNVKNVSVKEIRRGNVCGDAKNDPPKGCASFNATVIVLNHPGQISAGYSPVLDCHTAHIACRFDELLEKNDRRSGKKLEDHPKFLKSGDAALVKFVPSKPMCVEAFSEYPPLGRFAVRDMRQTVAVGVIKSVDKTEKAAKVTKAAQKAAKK
Kind of experiment: pull-down.

B1: recombinant Ypl225w-3xFLAG (natural protein, S. cerevisiae, UniProt Q08971 1-146, looked up)
chain: MSTFNAETADNLEDIEKQFAVVAVEQAETYWKLLTSVPGSKLRLTKFDDEIYENFMERFPEYKDVERVKKFTEEELKTKEAKERWRKFFTIFEKKIEDYNFGTLLRTDASAEYGQFTTCFVVRLQFYAFEIARNKHGLNDWIVGQK
For B1, the binding result was “binds”.
